Measured values reported in patent US20240091274A1.

Molecular target: Human CD52 (human) (UniProt P31358)
Test: cell-based or functional assay

Sequence of Human CD52 (human) (P31358 25-61 limits assumed): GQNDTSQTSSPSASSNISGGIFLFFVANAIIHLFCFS

alemtuzumab (antibody)
CDC killing of human HIP iECs (CD52) with ABO-matched allogeneic serum (XCelligence): 0.001 µg/ml | CDC killing of mouse B6 HIP iECs (CD52) with syngeneic B6 serum (XCelligence): 0.0001 µg/mL
